Substrate: O=C(O)c1c[nH]c2ccccc12
Assay: LC-MS of adenylate
Assay type: biochemical, Caenorhabditis elegans
Conditions: with ATP and coenzyme A; adenylate formed, no CoA ester

B1: ACS-7 (Caenorhabditis elegans) (protein)
chain: MIFHGEQLENHDKPVHEVLLERFKVHQEKDPDNVAFVTAENEDDSLGFQQLGKKVLQISEWFVENGYKKGDVFLLASYNNWRCFAAALGAWRAGLIVSAAASQFTSFEMNYQIEDSQSQVILVDKHTLPVVQEACKNLKFVKQIISISANPPSPVIKFDVLTSRLVRNLKMPLIDPKNDIVFLPYSSGTTGKPKGVMISHLNFSMMLESSLRFFDANAKAIGLPPDFVLPYDLHFLPMYHAMGMFRTLLTSYRGTTQIMFTKFDMELMLKNIEKYSIMVLSLVPAIAVRMLNSPLLQKYDVSSLVSVTVGSAPFPESASKKLKQLLPNVNIVQGYGMTELTFATHLQSPGSPDGSVGRLVPGTSMKVKKEDGTLCGPHEIGELWIKGPQMMKGYWKKEQQTNELLDEHGFMRTGDIVYFDKNGETFICDRIKELIKVNAKQVAPAELESVILEHDDVADVCVFGVDDASSGERPVACVVSKRGRDMETSKAIMKHINQKLARYKHIKEIEFVSEIMRTGTGKLLRRAMKKAFLDAKKAKL
Km: 270 ± 90 µM

Reference: article PMC5486983
